In the supplement of paper PMC10567573:
± gives the standard deviation.

Assay: protein stability index of a GFP-peptide fusion (GPS, HEK-293T) (PSI 1-6); higher = more stable
[1] = treatment: DMSO, c terminus: a fixed tail appended
[2] = treatment: MLN4924 1 uM, 8 h, c terminus: a fixed tail appended
[3] = treatment: DMSO, c terminus: native
[4] = treatment: MLN4924 1 uM, 8 h, c terminus: native
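Further: 24-mer peptide tiles fused after GFP, lentivirally expressed, FACS-sorted into six equal bins by GFP/DsRed ratio, decoded by Illumina sequencing, PSI is the read-weighted mean bin number.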

Sequence | protein stability index [1] | protein stability index [2] | protein stability index [3] | protein stability index [4]
KGKLMVCYETLPRGQCLLYNWEEE [SPAG8] | 2.55 ± 0.32 | 2.7 ± 0.34 |  | 
KGSLPQPPITEVESQVFSEKLATD [ZNF232] | 5.44 ± 0.17 | 5.24 ± 0.24 |  | 
KHHNLEGLRKRIATLFFHYIKTPL [IQUB] | 3.05 ± 0.27 | 2.66 ± 0.59 |  | 
KIIREIDFYREDEDEEEEEGGEGE [TRIM55] | 5.18 ± 0.26 | 5.06 ± 0.24 |  | 
KIKKSPLTICYPEYAGSNTYEEAA [GNAI1] | 3.34 ± 0.26 | 3.91 ± 0.28 |  | 
KKHEFLTSVLDALSTDMVHAASDP [SMOC2] | 3.33 ± 0.24 | 3.46 ± 0.18 |  | 
KLENARLSSEMNTSTVNSAREELM [LMNB1] | 4.59 ± 0.19 | 4.71 ± 0.11 |  | 
KLRQMRVEKFIYENHPDVFSDSSM [MYOZ1] | 2.43 ± 0.17 | 2.64 ± 0.41 |  | 
KNHSTVTVEEAKAEKETELSLQKE [TRIM29] | 5.57 ± 0.24 | 5.58 ± 0.23 |  | 
KNRPAMNYDKLSRSIRQYYKKGII [SPDEF] | 2.46 ± 0.3 | 2.42 ± 0.48 |  | 
KPYAVMVFQTEQKNLFRLEMDMVV [N4BP2L1] | 2.7 ± 0.1 | 2.96 ± 0.88 |  | 
KQIYNLIHLDPRTREGFTLLHLAV [FEM1B] | 2.66 ± 0.52 | 2.67 ± 0.61 |  | 
KQRPTKLKSLIRLVKHWYQNCKKK [OAS1] | 3.44 ± 0.45 | 3.08 ± 0.42 |  | 
KREMILKRKEEEALKDSLRPKLSE [VDR] | 4.82 ± 0.28 | 5.24 ± 0.24 |  | 
KRLYDKAAKMYHQLKKCETRKLSP [SMG5] | 2.28 ± 0.18 | 2.38 ± 0.39 |  | 
KSIYYITGESKEQVANSAFVERVR [HSP90AB1] | 3.11 ± 0.32 |  |  | 
KSLLPHLKTGNSSPGIGAVYLANQ [RTP4] | 2.71 ± 0.16 | 2.77 ± 0.2 |  | 
KSPIAPCSLDKRVILIFHCEFSSE [CDC25B] | 2.73 ± 0.5 | 2.8 ± 0.47 |  | 
KSVRLARELESREAELRRRDTFYK [CHCHD6] | 4.23 ± 0.26 | 4.36 ± 0.29 |  | 
KTCNPPDAGPMVVHCSAGVGRTGC [PTPRD] | 3.5 ± 0.32 | 3.5 ± 0.34 |  | 
KTHSSPALSQGHVTGSKTTKDATG [PSD2] | 5.37 ± 0.06 | 5.46 ± 0.17 |  | 
KTVCGYYTSAGTYGLDSVKKKCLE [GMCL1] | 3.16 ± 0.3 | 2.97 ± 0.49 |  | 
KVCLLGDTGVGKSSIVWRFVEDSF [RAB22A] | 2.28 ± 0.22 | 2.48 ± 0.68 |  | 

Sequence | protein stability index [1] | protein stability index [2] | protein stability index [3] | protein stability index [4]
KVEEVSLPEQVDIIISEPMGYMLF [CARM1] | 2.88 ± 0.49 | 2.54 ± 0.35 |  | 
KVFIPSLFLSHVLALGLGIYIGKR [BNIP3L] | 2.34 ± 0.89 | 2.3 ± 0.6 |  | 
KVKTMEVTSVSIELEKNFSNFPRQ [TRIM39] | 3.15 ± 0.23 | 3.42 ± 0.36 |  | 
KVKVPQKTAGKENHFDMHRVGKWH [ZNF75A] | 2.87 ± 0.45 | 3.43 ± 0.51 |  | 
KVLLCHGELRSKSGHKLYIFLFQD [NET1] | 2.62 ± 0.55 | 2.57 ± 0.57 |  | 
KVTGVEYHNAGTQTVPKRIPERLS [IQUB] | 4.22 ± 0.22 | 4.23 ± 0.32 |  | 
KVYYEVIQLIKTNKKHIHSRSTLE [SMG5] | 2.33 ± 0.93 | 2.26 ± 0.25 |  | 
KYGDIPRGIFVVRGENVVLLGEID [LSM1] | 2.27 ± 0.093 | 2.4 ± 0.32 |  | 
KYRNPSLKLMVNVCGHTLCESCVD [MNAT1] | 2.53 ± 0.34 | 2.83 ± 0.31 |  | 
KYSVYIYVYFHTKLTSQNSKRVS [R3HDM1] |  |  | 2.55 ± 0.71 | 2.24 ± 0.15
LALDREPPPHLLPEKHQVPEKLIW [WDR88] | 3.31 ± 0.32 | 3.17 ± 0.3 |  | 
LALRTLPGPSWVRGSGPSVLSRLQ [ALKBH7] | 2.62 ± 0.14 | 2.48 ± 0.3 |  | 
LAMNYKHGDPIPKVEFTEEEIKTW [TPH1] | 4.21 ± 0.33 | 4.35 ± 0.24 |  | 
LARGPLNQTALHLAAAHGHSEVVE [RIPK4] | 4.36 ± 0.18 | 4.55 ± 0.19 |  | 
LASARIIEQDAVVPSEWLSSVYKQ [GMCL1] | 3.31 ± 0.17 | 3.19 ± 0.24 |  | 
LASLSFIDTVYSTAFAPKMIVDLL [OR4A15] | 2.66 ± 0.32 | 3.05 ± 0.34 |  | 
LAVYHRLWDRAYVRLKPALQRLDF [RETREG3] | 2.31 ± 0.38 | 2.56 ± 0.4 |  | 
LCQVAQEALASAGASCCGQPLASH [VENTX] | 3.38 ± 0.27 | 3.42 ± 0.15 |  | 
LDAVEAQIGCKLPDDYRCSYRIHN [FBXO3] | 2.98 ± 0.39 | 3.15 ± 0.33 |  | 
LDQLDESLRDKVLQLQKGSDTEAQ [INTS3] | 5.46 ± 0.12 | 5.31 ± 0.21 |  | 
LDRVRGGRQKYKRRPEVDPLPFPG [ESRRA] | 3.68 ± 0.36 | 3.92 ± 0.41 |  | 
LEAGLPLQVRGYPEEKKEEEGSAN [CHGA] | 5.61 ± 0.35 | 5.79 ± 0.15 |  | 
LEALHLEALCEEDLLLWIQKHTEV [DENND6A] | 2.68 ± 0.17 | 2.84 ± 0.67 |  | 

Sequence | protein stability index [1] | protein stability index [2] | protein stability index [3] | protein stability index [4]
LEFFYGIATATEIAYYSYIYSVVD [SLC19A2] | 3.5 ± 0.48 | 3.27 ± 0.46 |  | 
LEFRSFWELIGEAAKSVKLERPVR [S100A14] | 1.87 ± 0.2 | 2.33 ± 0.35 |  | 
LELIEPLIKFQVGLKKLNLHEEEH [VDR] | 2.73 ± 0.21 | 2.9 ± 0.42 |  | 
LELQRQREARKRALARKQAQEQLR [RSPH3] | 3.95 ± 0.31 | 4.06 ± 0.49 |  | 
LESTLAETEARYSSQLAQMQCLIS [KRT36] | 3.08 ± 0.17 | 3.18 ± 0.32 |  | 
LETQAQVCQALAQVDGGANFSVDR [CPOX] | 4.85 ± 0.18 | 4.96 ± 0.14 |  | 
LEVADFLIKAGADIELGCSTPLME [ANKRD17] | 2.89 ± 0.56 | 2.82 ± 0.22 |  | 
LFEAGDATLASDLQDWASVGAFL [FOXJ1] |  |  | 3.59 ± 0.15 | 3.49 ± 0.34
LFLMDLSEGELGGPSEPGGTHPED [RHOBTB2] | 4.45 ± 0.22 | 4.33 ± 0.23 |  | 
LGDCMRTLGYMPTEMELLEVSQHI [CABP4] | 2.46 ± 0.31 | 2.57 ± 0.23 |  | 
LGPVPREDQAEAWGCSCCPPETKH [TSPAN10] | 4.91 ± 0.083 | 4.97 ± 0.32 |  | 
LGRPDSLELQRQREARKRALARKQ [RSPH3] | 4.6 ± 0.17 | 4.43 ± 0.19 |  | 
LHIPMYFFLAILSCSEICYTFIIV [OR10K2] | 3.65 ± 0.48 | 3.18 ± 0.38 |  | 
LHVKRSMGWKKACDELELHQRFLR [ZMYND11] | 2.31 ± 0.12 | 2.55 ± 0.45 |  | 
LIFFGGYGYLPEDKVLGTFEFDET [KLHDC2] | 2.13 ± 0.66 | 2.6 ± 0.73 |  | 
LIIFDKQSSQRMRQNLKLLVEETS [CEP70] | 2.1 ± 0.25 | 2.04 ± 0.35 |  | 
LILASELSRLSVNSVTAGDYSRPL [TSN] | 2.45 ± 0.33 | 2.37 ± 0.19 |  | 
LIVHIALPSWADICTNLCEALQNF [M1AP] | 3.02 ± 0.56 | 3.09 ± 0.24 |  | 
LKKSRGKFIKPWESPDEMELDELL [PTPRD] | 3.52 ± 0.35 | 3.15 ± 0.44 |  | 
LKKYLEPRCPRMVLSLKEGAREED [FBXO3] | 4.56 ± 0.34 | 4.19 ± 0.41 |  | 
LKSMDKNGTMTIDWNEWRDYHLLH [SLC25A25] | 2.27 ± 0.05 | 2.19 ± 0.28 |  | 
LLDEIVPVYRRDCHEEVYAGSHQY [ACBD3] | 3.03 ± 0.13 | 3.13 ± 0.26 |  | 
LLEATCPFGENAEFPADISSITEA [NFE2L1] | 4.48 ± 0.28 | 4.65 ± 0.17 |  | 

Sequence | protein stability index [1] | protein stability index [2] | protein stability index [3] | protein stability index [4]
LLHLDLKPANILLDAHYHVKISDF [RIPK4] | 2.45 ± 0.32 | 2.36 ± 0.48 |  | 
LLIVKLEEDCAWSQELPPPDPGPS [ZNF263] | 2.33 ± 0.29 | 2.42 ± 0.29 |  | 
LLLELKGLQEEPVEGFRVTLVDEG [CDC34] | 2.64 ± 0.29 | 2.66 ± 0.21 |  | 
LLLEMLTFNPHKRISAFRALQHSY [CDK4] | 2.43 ± 0.32 | 2.41 ± 0.25 |  | 
LLLLSKAKLVPSEREASPSNSCQD [IKZF1] | 3.31 ± 0.099 | 3.14 ± 0.15 |  | 
LLMIPWGSAAKLVCYFTNWAQYRQ [CHIT1] | 3.04 ± 0.69 | 2.86 ± 0.68 |  | 
LLSCLSKSNNRLKSLSIQYLELDR [FBXO39] | 2.54 ± 0.37 | 2.01 ± 0.33 |  | 
LLVINESIESIKWMIEEKATITSR [LURAP1L] | 2.38 ± 0.24 | 2.51 ± 0.3 |  | 
LNERKQASAIKKEELVARSETHAA [CHGB] | 5.48 ± 0.22 | 5 ± 0.23 |  | 
LNFCGPNVINHFYCDLPQLFQLSC [OR3A1] | 2.83 ± 0.51 | 2.6 ± 0.71 |  | 
LNLTEGFAVLHWKPPQNPVDTYDV [TNXB] | 2.5 ± 0.66 | 2.69 ± 0.45 |  | 
LNQKTSEKMKKRKMSNSFHGIRPP [RHOBTB3] | 3.95 ± 0.34 | 4.23 ± 0.11 |  | 
LNSMPKRLCLVCGDIASGYHYGVA [ESRRG] | 2.48 ± 0.22 | 2.23 ± 0.39 |  | 
LNVTNYCHLAHELRLSCMERKKVQ [DCAF4] | 2.61 ± 0.19 | 2.36 ± 0.21 |  | 
LPAVKVFLDWLRTNPDLIIVCAQS [SMG5] | 2.27 ± 0.47 | 2.41 ± 0.45 |  | 
LPFERLAFVLSSNSLKHCTELELF [KLHL13] | 2.73 ± 0.6 | 2.76 ± 0.62 |  | 
LPFLAHALYVQAPTVTIEGFLQAL [TRIP13] | 2.93 ± 0.66 | 2.76 ± 0.51 |  | 
LPSLGLPQYRSYFMECLVDARMLD [PPFIA4] | 2.47 ± 0.46 | 2.13 ± 0.38 |  | 
LPWFRTLSWYFLLCVNYFFYGETV [CDS1] | 3.08 ± 0.14 | 3.38 ± 0.75 |  | 
LPWLSLRALKFRERDALEAVFRFW [DNAAF3] | 2.46 ± 0.24 | 2.49 ± 0.28 |  | 
